B1: PCMTD2 (parent)
chain: FFIRTSDSFDKFDFCEPSFVTGNC

Variants of: B1
Assay: protein stability index of a GFP-peptide fusion (GPS, HEK-293T) (PSI 1-6); higher = more stable
Conditions: c terminus: a fixed tail appended
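Note: lentivirally expressed fusions sorted by FACS into six bins by GFP to DsRed ratio, PSI derived from sequencing read proportions per bin multiplied by bin number.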

| Variant | protein stability index |
| --- | --- |
| FFIRLSDSFDKFDFCEPSFVTGNC [T5L] | 2.48 |
| FFIRYSDSFDKFDFCEPSFVTGNC [T5Y] | 2.88 |
| FFIRESDSFDKFDFCEPSFVTGNC [T5E] | 2.14 |
| FFIRASDSFDKFDFCEPSFVTGNC [T5A] | 3.25 |
| FFIRSSDSFDKFDFCEPSFVTGNC [T5S] | 3.67 |
| FFIRMSDSFDKFDFCEPSFVTGNC [T5M] | 2.69 |
| FFIRDSDSFDKFDFCEPSFVTGNC [T5D] | 2.37 |
| FFIRGSDSFDKFDFCEPSFVTGNC [T5G] | 1.92 |
| FFIRHSDSFDKFDFCEPSFVTGNC [T5H] | 2.39 |
| FFIRRSDSFDKFDFCEPSFVTGNC [T5R] | 1.82 |
| FFIRISDSFDKFDFCEPSFVTGNC [T5I] | 3.08 |
| FFIRCSDSFDKFDFCEPSFVTGNC [T5C] | 2.77 |
| FFIRVSDSFDKFDFCEPSFVTGNC [T5V] | 3.03 |
| FFIRQSDSFDKFDFCEPSFVTGNC [T5Q] | 1.78 |
| FFIRPSDSFDKFDFCEPSFVTGNC [T5P] | 3.1 |
| FFIRTSDSFAKFDFCEPSFVTGNC [D10A] | 2.7 |
| FFIRTSDSFLKFDFCEPSFVTGNC [D10L] | 2.67 |
| FFIRTSDSFSKFDFCEPSFVTGNC [D10S] | 2.22 |
| FFIRTSDSFCKFDFCEPSFVTGNC [D10C] | 3.08 |
| FFIRTSDSFRKFDFCEPSFVTGNC [D10R] | 2.56 |
| FFIRTSDSFKKFDFCEPSFVTGNC [D10K] | 3.06 |
| FFIRTSDSFPKFDFCEPSFVTGNC [D10P] | 2.94 |
| FFIRTSDSFEKFDFCEPSFVTGNC [D10E] | 2.27 |
| FFIRTSDSFFKFDFCEPSFVTGNC [D10F] | 3.53 |

| Variant | protein stability index |
| --- | --- |
| FFIRTSDSFQKFDFCEPSFVTGNC [D10Q] | 2.54 |
| FFIRTSDSFTKFDFCEPSFVTGNC [D10T] | 2.81 |
| FFIRTSDSFMKFDFCEPSFVTGNC [D10M] | 3.52 |
| FFIRTSDSFNKFDFCEPSFVTGNC [D10N] | 2.72 |
| FFIRTSDSFIKFDFCEPSFVTGNC [D10I] | 2.31 |
| FFIRTSDSFHKFDFCEPSFVTGNC [D10H] | 2.83 |
| FFIRTSDSFGKFDFCEPSFVTGNC [D10G] | 2.61 |
| AFIRTSDSFDKFDFCEPSFVTGNC [F1A] | 1.82 |
| CFIRTSDSFDKFDFCEPSFVTGNC [F1C] | 2.93 |
| VFIRTSDSFDKFDFCEPSFVTGNC [F1V] | 2.15 |
| SFIRTSDSFDKFDFCEPSFVTGNC [F1S] | 2.31 |
| YFIRTSDSFDKFDFCEPSFVTGNC [F1Y] | 2.39 |
| KFIRTSDSFDKFDFCEPSFVTGNC [F1K] | 2.4 |
| PFIRTSDSFDKFDFCEPSFVTGNC [F1P] | 2.6 |
| EFIRTSDSFDKFDFCEPSFVTGNC [F1E] | 1.97 |
| MFIRTSDSFDKFDFCEPSFVTGNC [F1M] | 2.32 |
| HFIRTSDSFDKFDFCEPSFVTGNC [F1H] | 2.19 |
| NFIRTSDSFDKFDFCEPSFVTGNC [F1N] | 2.4 |
| RFIRTSDSFDKFDFCEPSFVTGNC [F1R] | 2.42 |
| QFIRTSDSFDKFDFCEPSFVTGNC [F1Q] | 1.87 |
| IFIRTSDSFDKFDFCEPSFVTGNC [F1I] | 1.81 |
| WFIRTSDSFDKFDFCEPSFVTGNC [F1W] | 2.04 |
| LFIRTSDSFDKFDFCEPSFVTGNC [F1L] | 2.4 |
